Source: paper PMC6943437, “Coupling the Antimalarial Cell Penetrating Peptide TP10 to Classical Antimalarial Drugs Primaquine and Chloroquine Produces Strongly Hemolytic Conjugates” (Molecules, 2019)
Values joined by “and” are separate entries in the source; they are usually repeats but may differ in a detail not shown here. Identical values can stand only once. Like-named read-outs stand apart in the source and are kept apart here.

Assays:
[1] = In vitro hemolytic activity on Plasmodium-infected erythrocyte cultures; format: cell-based; conditions: cultures with 3% PiRBC, dash with footnote c = hemolysis not detected, read-out: % hemolysis at 10 µM ± SD (n = 3), PiRBC
Experimental: (§1) For positive and negative controls, 1% Triton X-100 and PBS were added, respectively. After this period, the plates were centrifuged and supernatants transferred to another plate. Supernatant absorbance at 450 nm was assessed in a multi-mode microplate reader (Triad, Dynex Technologies, Chantilly, VA, USA) and values were treated using the following equation (1):(1) % Hemolysis=Abs−Abs(negative control)/Abs(positive control)−Abs(negative control)

[2] = In vitro hemolytic activity on healthy erythrocytes; format: cell-based; conditions: healthy erythrocytes (hRBC); 10 µM, 1 h, hRBC only; dash with footnote c = hemolysis not detected; read-out: % hemolysis at 10 µM ± SD (n = 3), hRBC
Experimental: as §1

P. falciparum 3D7 [3] = format: cell-based; conditions: P. falciparum 3D7 (CQ-sensitive), 48 h; read-out: IC50 ± SD (n = 3)
Experimental: These second-generation conjugates (synthesis routes depicted in Scheme 2; Scheme 3) were evaluated in vitro, alongside the commercial reference drug, CQ (1), their parent building blocks, TP10 and Cq (4), and first-generation conjugate 5a, regarding their ability to inhibit growth of blood-stage parasites of the CQ-sensitive P. falciparum 3D7 strain (Table 3). The primaquine analogues of Cq conjugates 5a and 14, respectively, PQ-C4-TP10 (3a) and TP10-S-S-PQ (Figure 2, 14′), were also included for comparison; the synthesis of these conjugates, 3a and 14′, has been reported elsewhere. Of note, substantial hemolysis was detected upon erythrocyte exposure to some of the test conjugates, particularly at the higher concentrations tested. In view of this, emolysis assays were also conducted on cultures of both hRBC and PiRBC (Table 3).
P. falciparum 3D7 strain (chloroquine and mefloquine susceptible) was continuously cultured as previously described. Parasitemia was monitored daily by microscopic examination of Giemsa (MERCK, Sigma-Aldrich) stained thin blood smears.
Synchronized ring-stage P. falciparum (3% hematocrit, 1% parasitemia) were incubated in a microtiter plate for 48 h in the presence of two-fold serial dilutions of TP10 and derived conjugates 11–15, in the 10–10000 nM concentration range. Cultures incubated with three-fold serial dilutions of chloroquine bisphosphate, and also of its analogue 4, in the 0.1–8000 nM concentration range, were included for comparison. Culture without test compounds was also added to the microtiter plate, as negative control. After incubation, 100 μL of a solution of SYBR Green (Thermo Fisher; SG; 0.001% v/v in PBS) was added to each well and plates incubated for another 60 min under standard culture conditions. Plates were then centrifuged at 2500 rpm for 2 min, the supernatant was discarded, and cells were re-suspended in 100 μL of PBS. Fluorescence was collected in a multi-mode microplate reader (Triad, Dynex Technologies) with excitation at 485 nm and emission at 535 nm. Fluorescence values were normalized (to take into account the normal growth of the parasite) and then plotted against logC. IC50 were determined using GraphPad Prism 6.

P. falciparum W2 [4] = format: cell-based; conditions: P. falciparum W2 (CQ-resistant), 48 h, n = 3
Experimental: All conjugates and their respective parent CPP (Table 1), were screened in vitro for their antiplasmodial activity, using the CQ-resistant P. falciparum W2 strain. The primaquine analogue to 5a, i.e., conjugate 3 where the CPP is TP10, PQ-C4-TP10 (3a), was also included in the study for comparison.
Synchronized ring-stage P. falciparum parasites (W2 strain) were incubated with test compounds for 48 h in Roswell Park Memorial Institute (RPMI) 1640 medium containing 10% human serum or 0.5% Albumax serum substitute. Parasites were then fixed with 1% formaldehyde in phosphate-buffered saline (PBS), pH 7.4, for […] at RT and labeled with YOYO-1 (1 nM; molecular probes) in 0.1% Triton X-100 in PBS. Parasitemias were determined by flow cytometry, from dot plots (forward scatter versus fluorescence). For 50% inhibitory concentration (IC50) determinations, dose-response studies were performed, with the values normalized to percent control activity, and IC50s were calculated using GraphPad Prism, with data fitted by nonlinear regression.

hRBC = experiment: In vitro hemolytic activity on healthy erythrocytes; format: cell-based; conditions: cultures of hRBC and PiRBC, summary of Table 3
Experimental: as §1

P. falciparum W2 [5] = conditions: cited from earlier work
P. falciparum 3D7 [6] = conditions: cited from earlier work

CC[C@H](C)[C@H](NC(=O)[C@H](CCCCN)NC(=O)[C@H](CCCCN)NC(=O)[C@H](C)NC(=O)[C@H](CC(C)C)NC(=O)[C@H](C)NC(=O)[C@H](C)NC(=O)[C@H](CC(C)C)NC(=O)[C@H](C)NC(=O)[C@H](CCCCN)NC(=O)[C@H](CC(C)C)NC(=O)[C@H](CC(N)=O)NC(=O)[C@@H](NC(=O)[C@H](CCCCN)NC(=O)CNC(=O)[C@H](CC(C)C)NC(=O)[C@H](CC(C)C)NC(=O)[C@H](Cc1ccc(O)cc1)NC(=O)CNC(=O)[C@H](C)NC(=O)CCC(=O)NCCCC(C)Nc1cc(OC)cc2cccnc12)[C@@H](C)CC)C(=O)N[C@@H](CC(C)C)C(N)=O (stereo partly shown) [3a]
hemolysis at 1 h, 10 µM [1]: 49 ± 7%
hemolysis at 1 h, 10 µM [2]: 89 ± 8%

CC[C@H](C)[C@H](NC(=O)[C@H](CCCCN)NC(=O)[C@H](CCCCN)NC(=O)[C@H](C)NC(=O)[C@H](CC(C)C)NC(=O)[C@H](C)NC(=O)[C@H](C)NC(=O)[C@H](CC(C)C)NC(=O)[C@H](C)NC(=O)[C@H](CCCCN)NC(=O)[C@H](CC(C)C)NC(=O)[C@H](CC(N)=O)NC(=O)[C@@H](NC(=O)[C@H](CCCCN)NC(=O)CNC(=O)[C@H](CC(C)C)NC(=O)[C@H](CC(C)C)NC(=O)[C@H](Cc1ccc(O)cc1)NC(=O)CNC(=O)[C@H](C)NC(=O)CCC(=O)NCCCCNc1ccnc2cc(Cl)ccc12)[C@@H](C)CC)C(=O)N[C@@H](CC(C)C)C(N)=O [5a]
IC50 (P. falciparum 3D7 [3]): 0.8 ± 0.1 µM
hemolysis at 1 h, 10 µM [1]: 6.5 ± 0.4%
hemolysis at 1 h, 10 µM [2]: 23 ± 1%

CC[C@H](C)[C@H](NC(=O)[C@H](CCCCN)NC(=O)[C@H](CCCCN)NC(=O)[C@H](C)NC(=O)[C@H](CC(C)C)NC(=O)[C@H](C)NC(=O)[C@H](C)NC(=O)[C@H](CC(C)C)NC(=O)[C@H](C)NC(=O)[C@H](CCCCN)NC(=O)[C@H](CC(C)C)NC(=O)[C@H](CC(N)=O)NC(=O)[C@@H](NC(=O)[C@H](CCCCN)NC(=O)CNC(=O)[C@H](CC(C)C)NC(=O)[C@H](CC(C)C)NC(=O)[C@H](Cc1ccc(O)cc1)NC(=O)CNC(=O)[C@H](C)N)[C@@H](C)CC)C(=O)N[C@@H](CC(C)C)C(=O)N[C@@H](CSSC[C@H](N)C(=O)NCCCC(C)Nc1cc(OC)cc2cccnc12)C(N)=O (stereo partly shown) [14′]
hemolysis at 1 h, 10 µM [1]: 72 ± 9%
hemolysis at 1 h, 10 µM [2]: 99.7 ± 0.4%

CC[C@H](C)[C@H](NC(=O)[C@H](CCCCN)NC(=O)[C@H](CCCCN)NC(=O)[C@H](C)NC(=O)[C@H](CC(C)C)NC(=O)[C@H](C)NC(=O)[C@H](C)NC(=O)[C@H](CC(C)C)NC(=O)[C@H](C)NC(=O)[C@H](CCCCN)NC(=O)[C@H](CC(C)C)NC(=O)[C@H](CC(N)=O)NC(=O)[C@@H](NC(=O)[C@H](CCCCN)NC(=O)CNC(=O)[C@H](CC(C)C)NC(=O)[C@H](CC(C)C)NC(=O)[C@H](Cc1ccc(O)cc1)NC(=O)CNC(=O)[C@H](C)N)[C@@H](C)CC)C(=O)N[C@@H](CC(C)C)C(N)=O [TP10]
IC50 (P. falciparum 3D7 [3]): 1.9 ± 0.5 µM
hemolysis at 1 h, 10 µM [1]: 3.4 ± 0.2%
IC50 (P. falciparum W2 [4]): 5.53 µM and 5.5 µM
hemolytic activity (in words) (hRBC): only slightly hemolytic
hemolysis at 1 h, 10 µM [2]: 3.7 ± 0.1%

CCN(CC)CCCC(C)Nc1ccnc2cc(Cl)ccc12 (stereo not shown) [compound 1, chloroquine]
IC50 (P. falciparum W2 [5]): 0.699 µM
hemolytic activity (in words) (hRBC): not hemolytic
IC50 (P. falciparum 3D7 [6]): 0.021 µM

CC[C@H](C)[C@H](NC(=O)[C@H](CCCCN)NC(=O)[C@H](CCCCN)NC(=O)[C@H](C)NC(=O)[C@H](CC(C)C)NC(=O)[C@H](C)NC(=O)[C@H](C)NC(=O)[C@H](CC(C)C)NC(=O)[C@H](C)NC(=O)[C@H](CCCCN)NC(=O)[C@H](CC(C)C)NC(=O)[C@H](CC(N)=O)NC(=O)[C@@H](NC(=O)[C@H](CCCCN)NC(=O)CNC(=O)[C@H](CC(C)C)NC(=O)[C@H](CC(C)C)NC(=O)[C@H](Cc1ccc(O)cc1)NC(=O)CNC(=O)[C@H](C)NC(=O)CCCCCNC(=O)CCC(=O)NCCCCNc1ccnc2cc(Cl)ccc12)[C@@H](C)CC)C(=O)N[C@@H](CC(C)C)C(N)=O [compound 10]
IC50 (P. falciparum 3D7 [3]): 0.8 ± 0.3 µM
hemolysis at 1 h, 10 µM [1]: 19 ± 1%
hemolysis at 1 h, 10 µM [2]: 38 ± 2%

CC[C@H](C)[C@H](NC(=O)[C@H](CCCCN)NC(=O)[C@H](CCCCN)NC(=O)[C@H](C)NC(=O)[C@H](CC(C)C)NC(=O)[C@H](C)NC(=O)[C@H](C)NC(=O)[C@H](CC(C)C)NC(=O)[C@H](C)NC(=O)[C@H](CCCCN)NC(=O)[C@H](CC(C)C)NC(=O)[C@H](CC(N)=O)NC(=O)[C@@H](NC(=O)[C@H](CCCCN)NC(=O)CNC(=O)[C@H](CC(C)C)NC(=O)[C@H](CC(C)C)NC(=O)[C@H](Cc1ccc(O)cc1)NC(=O)CNC(=O)[C@H](C)NC(=O)[C@@H](N)Cc1cn(CCCCCC(=O)NCCCCNc2ccnc3cc(Cl)ccc23)nn1)[C@@H](C)CC)C(=O)N[C@@H](CC(C)C)C(N)=O [compound 11]
IC50 (P. falciparum 3D7 [3]): 1.2 ± 0.2 µM
hemolysis at 1 h, 10 µM [1]: 10.7 ± 0.1%
hemolysis at 1 h, 10 µM [2]: 23 ± 1%

CC[C@H](C)[C@H](NC(=O)[C@H](CCCCN)NC(=O)[C@H](CCCCN)NC(=O)[C@H](C)NC(=O)[C@H](CC(C)C)NC(=O)[C@H](C)NC(=O)[C@H](C)NC(=O)[C@H](CC(C)C)NC(=O)[C@H](C)NC(=O)[C@H](CCCCN)NC(=O)[C@H](CC(C)C)NC(=O)[C@H](CC(N)=O)NC(=O)[C@@H](NC(=O)[C@H](CCCCN)NC(=O)CNC(=O)[C@H](CC(C)C)NC(=O)[C@H](CC(C)C)NC(=O)[C@H](Cc1ccc(O)cc1)NC(=O)CNC(=O)[C@H](C)NC(=O)[C@@H](N)CSSC[C@H](N)C(=O)NCCCCNc1ccnc2cc(Cl)ccc12)[C@@H](C)CC)C(=O)N[C@@H](CC(C)C)C(N)=O [compound 12]
IC50 (P. falciparum 3D7 [3]): 1 ± 0.3 µM
hemolysis at 1 h, 10 µM [1]: 2 ± 0.3%
hemolysis at 1 h, 10 µM [2]: 8.5 ± 0.5%

CC[C@H](C)[C@H](NC(=O)[C@H](CCCCNC(=O)CCC(=O)NCCCCNc1ccnc2cc(Cl)ccc12)NC(=O)[C@H](CCCCN)NC(=O)[C@H](C)NC(=O)[C@H](CC(C)C)NC(=O)[C@H](C)NC(=O)[C@H](C)NC(=O)[C@H](CC(C)C)NC(=O)[C@H](C)NC(=O)[C@H](CCCCN)NC(=O)[C@H](CC(C)C)NC(=O)[C@H](CC(N)=O)NC(=O)[C@@H](NC(=O)[C@H](CCCCN)NC(=O)CNC(=O)[C@H](CC(C)C)NC(=O)[C@H](CC(C)C)NC(=O)[C@H](Cc1ccc(O)cc1)NC(=O)CNC(=O)[C@H](C)N)[C@@H](C)CC)C(=O)N[C@@H](CC(C)C)C(N)=O [compound 13]
hemolysis at 1 h, 10 µM [1]: 41 ± 2%
hemolysis at 1 h, 10 µM [2]: 50 ± 2%

CC[C@H](C)[C@H](NC(=O)[C@H](CCCCN)NC(=O)[C@H](CCCCN)NC(=O)[C@H](C)NC(=O)[C@H](CC(C)C)NC(=O)[C@H](C)NC(=O)[C@H](C)NC(=O)[C@H](CC(C)C)NC(=O)[C@H](C)NC(=O)[C@H](CCCCN)NC(=O)[C@H](CC(C)C)NC(=O)[C@H](CC(N)=O)NC(=O)[C@@H](NC(=O)[C@H](CCCCN)NC(=O)CNC(=O)[C@H](CC(C)C)NC(=O)[C@H](CC(C)C)NC(=O)[C@H](Cc1ccc(O)cc1)NC(=O)CNC(=O)[C@H](C)N)[C@@H](C)CC)C(=O)N[C@@H](CC(C)C)C(=O)N[C@@H](CSSC[C@H](N)C(=O)NCCCCNc1ccnc2cc(Cl)ccc12)C(N)=O [compound 14]
IC50 (P. falciparum 3D7 [3]): 2.3 ± 0.4 µM
hemolysis at 1 h, 10 µM [1]: 7 ± 1%
hemolysis at 1 h, 10 µM [2]: 18.2 ± 0.8%

N-(7-Methylquinolin-4-yl)butane-1,4-diamine [compound 4]
IC50 (P. falciparum 3D7 [3]): 0.07 ± 0.02 µM
hemolytic activity (in words) (hRBC): not hemolytic
